# Measured values as given in patent US20230381281A1, “PHARMACEUTICAL COMPOSITION COMPRISING GLUCAGON/GLP-1/GIP TRIPLE AGONIST OR LONG-ACTING CONJUGATE THEREOF FOR PREVENTING OR TREATING LUPUS-RELATED DISEASES” (HANMI PHARM. CO., LTD., priority 2020, published 2023).
# Bridge positions count the residues as written; N and C are the ends. Square brackets hold non-standard residues; d marks the D form. Ends that are not written are not given here. * marks the point of attachment. Acetyl(2-(4-imidazolyl)) = O=C(Cc1c[nH]cn1)*; Aib = CC(C)(N)C(=O)O
# T1: human GIP receptor (human, UniProt P48546 22-466)
# T1 sequence (looked up): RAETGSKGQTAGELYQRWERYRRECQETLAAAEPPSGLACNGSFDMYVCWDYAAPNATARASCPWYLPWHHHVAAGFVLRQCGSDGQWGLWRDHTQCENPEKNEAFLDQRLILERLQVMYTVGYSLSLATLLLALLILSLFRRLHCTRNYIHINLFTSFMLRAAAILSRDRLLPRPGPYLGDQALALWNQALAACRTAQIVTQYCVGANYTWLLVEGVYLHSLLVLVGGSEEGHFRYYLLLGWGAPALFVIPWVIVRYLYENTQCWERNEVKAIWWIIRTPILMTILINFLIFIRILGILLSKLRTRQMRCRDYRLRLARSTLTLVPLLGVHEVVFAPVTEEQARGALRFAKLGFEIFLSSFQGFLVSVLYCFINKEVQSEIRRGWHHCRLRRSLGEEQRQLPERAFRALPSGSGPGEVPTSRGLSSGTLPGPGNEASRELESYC
# B1: Triple agonist of SEQ ID NO: 56 (peptide)
# peptide: H[Aib]QGTFTSDYSKYLDEKRQKEFVNWLLAQC
# modifications: bridge (positions not given here); also: ring formation between underlined amino acids, places not given here
# Molecular target: T1, human GIP receptor
# Assay: cell-based or functional assay
row,Binder,In vitro activity compared to native peptide (%) vs GIP
1,HGQGTFTSDCSKYLDGQRAQEFVAWLLAGGPSSGAPPPS [Triple agonist of SEQ ID NO: 47],< 0.1%
2,HGQGTFTSDCSKYLDGQRAQDFVNWLLAGGPSSGAPPPS [Triple agonist of SEQ ID NO: 48],< 0.1%
3,{Acetyl(2-(4-imidazolyl))}-[Aib]QGTFTSDYSICMDEIHQKDFVNWLLNTK (bridge 15-19) [Triple agonist of SEQ ID NO: 49],3.3%
4,H[Aib]QGTFTSDYSKYLDEKRAKEFVQWLLDHHPSSGQPPPSC (bridge 16-20) [Triple agonist of SEQ ID NO: 50],2.7%
5,H[Aib]QGTFTSDYSKYLDEKRQKEFVQWLLNTC (bridge 16-20) [Triple agonist of SEQ ID NO: 51],0.1%
6,H[Aib]QGTFTSDYSKYLDEKRQKEFVQWLLDTC (bridge 16-20) [Triple agonist of SEQ ID NO: 52],0.3%
7,H[Aib]EGTFTSDYSIAMDEIHQKDFVNWLLAQC (bridge 16-20) [Triple agonist of SEQ ID NO: 53],1.3%
8,H[Aib]EGTFTSDYSIAMDEIHQKDFVDWLLAEC (bridge 16-20) [Triple agonist of SEQ ID NO: 54],0.1%
9,H[Aib]QGTFTSDVSSYLDGQAAKEFVAWLLKGC [Triple agonist of SEQ ID NO: 6],< 0.1%
10,H[Aib]QGTFTSDYSIAMDEIHQKDFVNWLLAQC (bridge 16-20) [Triple agonist of SEQ ID NO: 55],2.4%
11,B1,0.8%
12,H[Aib]QGTFTSDYSIAMDEIHQKDFVNWLLNTC (bridge 16-20) [Triple agonist of SEQ ID NO: 57],0.3%
13,H[Aib]QGTFTSDYSKYLDEKRQKEFVQWLLNTKC (bridge 16-20) [Triple agonist of SEQ ID NO: 58],0.2%
14,{Acetyl(2-(4-imidazolyl))}-[Aib]QGTFTSDYSICMDEKHQKDFVNWLLNTK (bridge 15-19) [Triple agonist of SEQ ID NO: 59],4%
15,{Acetyl(2-(4-imidazolyl))}-[Aib]QGTFTSDYSIAMDEKHCKDFVNWLLNTK (bridge 15-19) [Triple agonist of SEQ ID NO: 60],18.2%

# Molecular target: human GCG receptor (human, UniProt P47871 26-477)
# Assay: cell-based or functional assay
# Sequence of human GCG receptor (P47871 26-477): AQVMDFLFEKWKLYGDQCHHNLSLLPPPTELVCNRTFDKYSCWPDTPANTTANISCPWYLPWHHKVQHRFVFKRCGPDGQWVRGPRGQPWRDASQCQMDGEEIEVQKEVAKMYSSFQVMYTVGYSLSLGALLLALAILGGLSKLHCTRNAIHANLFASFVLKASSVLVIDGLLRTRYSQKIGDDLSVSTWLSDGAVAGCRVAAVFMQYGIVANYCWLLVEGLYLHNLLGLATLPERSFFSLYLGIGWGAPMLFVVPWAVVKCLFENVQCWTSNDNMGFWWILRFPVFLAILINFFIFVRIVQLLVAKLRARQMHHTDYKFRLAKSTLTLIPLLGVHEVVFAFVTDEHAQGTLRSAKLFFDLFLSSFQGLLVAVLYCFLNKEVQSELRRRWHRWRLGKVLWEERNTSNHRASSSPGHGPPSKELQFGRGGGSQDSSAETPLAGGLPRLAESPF
row,Binder,In vitro activity compared to native peptide (%) vs Glucagon
1,HGQGTFTSDCSKYLDGQRAQEFVAWLLAGGPSSGAPPPS [Triple agonist of SEQ ID NO: 47],< 0.1%
2,HGQGTFTSDCSKYLDGQRAQDFVNWLLAGGPSSGAPPPS [Triple agonist of SEQ ID NO: 48],< 0.1%
3,{Acetyl(2-(4-imidazolyl))}-[Aib]QGTFTSDYSICMDEIHQKDFVNWLLNTK (bridge 15-19) [Triple agonist of SEQ ID NO: 49],< 0.1%
4,H[Aib]QGTFTSDYSKYLDEKRAKEFVQWLLDHHPSSGQPPPSC (bridge 16-20) [Triple agonist of SEQ ID NO: 50],50.5%
5,H[Aib]QGTFTSDYSKYLDEKRQKEFVQWLLNTC (bridge 16-20) [Triple agonist of SEQ ID NO: 51],2%
6,H[Aib]QGTFTSDYSKYLDEKRQKEFVQWLLDTC (bridge 16-20) [Triple agonist of SEQ ID NO: 52],7.5%
7,H[Aib]EGTFTSDYSIAMDEIHQKDFVNWLLAQC (bridge 16-20) [Triple agonist of SEQ ID NO: 53],8.4%
8,H[Aib]EGTFTSDYSIAMDEIHQKDFVDWLLAEC (bridge 16-20) [Triple agonist of SEQ ID NO: 54],1.4%
9,H[Aib]QGTFTSDVSSYLDGQAAKEFVAWLLKGC [Triple agonist of SEQ ID NO: 6],< 0.1%
10,H[Aib]QGTFTSDYSIAMDEIHQKDFVNWLLAQC (bridge 16-20) [Triple agonist of SEQ ID NO: 55],0.7%
11,B1,4.9%
12,H[Aib]QGTFTSDYSIAMDEIHQKDFVNWLLNTC (bridge 16-20) [Triple agonist of SEQ ID NO: 57],< 0.1%
13,H[Aib]QGTFTSDYSKYLDEKRQKEFVQWLLNTKC (bridge 16-20) [Triple agonist of SEQ ID NO: 58],2.6%
14,{Acetyl(2-(4-imidazolyl))}-[Aib]QGTFTSDYSICMDEKHQKDFVNWLLNTK (bridge 15-19) [Triple agonist of SEQ ID NO: 59],< 0.1%
15,{Acetyl(2-(4-imidazolyl))}-[Aib]QGTFTSDYSIAMDEKHCKDFVNWLLNTK (bridge 15-19) [Triple agonist of SEQ ID NO: 60],< 0.1%

# Molecular target: human GLP-1 receptor (human, UniProt P43220 24-463)
# Assay: cell-based or functional assay
row,Binder,In vitro activity compared to native peptide (%) vs GLP-1
1,{Acetyl(2-(4-imidazolyl))}-[Aib]QGTFTSDKSSYLDERAAQDFVQWLLDGGPSSGAPPPSS [Triple agonist of SEQ ID NO: 38],2.3%
2,HGQGTFTSDCSKYLDGQRAQEFVAWLLAGGPSSGAPPPS [Triple agonist of SEQ ID NO: 47],2.4%
3,HGQGTFTSDCSKYLDGQRAQDFVNWLLAGGPSSGAPPPS [Triple agonist of SEQ ID NO: 48],1.5%
4,{Acetyl(2-(4-imidazolyl))}-[Aib]QGTFTSDYSICMDEIHQKDFVNWLLNTK (bridge 15-19) [Triple agonist of SEQ ID NO: 49],29.8%
5,H[Aib]QGTFTSDYSKYLDEKRAKEFVQWLLDHHPSSGQPPPSC (bridge 16-20) [Triple agonist of SEQ ID NO: 50],67.4%
6,H[Aib]QGTFTSDYSKYLDEKRQKEFVQWLLNTC (bridge 16-20) [Triple agonist of SEQ ID NO: 51],14.4%
7,H[Aib]QGTFTSDYSKYLDEKRQKEFVQWLLDTC (bridge 16-20) [Triple agonist of SEQ ID NO: 52],44.1%
8,H[Aib]EGTFTSDYSIAMDEIHQKDFVNWLLAQC (bridge 16-20) [Triple agonist of SEQ ID NO: 53],161%
9,H[Aib]EGTFTSDYSIAMDEIHQKDFVDWLLAEC (bridge 16-20) [Triple agonist of SEQ ID NO: 54],30.6%
10,H[Aib]QGTFTSDVSSYLDGQAAKEFVAWLLKGC [Triple agonist of SEQ ID NO: 6],17%
11,H[Aib]QGTFTSDYSIAMDEIHQKDFVNWLLAQC (bridge 16-20) [Triple agonist of SEQ ID NO: 55],27.1%
12,B1,57.9%
13,H[Aib]QGTFTSDYSIAMDEIHQKDFVNWLLNTC (bridge 16-20) [Triple agonist of SEQ ID NO: 57],11.7%
14,H[Aib]QGTFTSDYSKYLDEKRQKEFVQWLLNTKC (bridge 16-20) [Triple agonist of SEQ ID NO: 58],39.1%
15,{Acetyl(2-(4-imidazolyl))}-[Aib]QGTFTSDYSICMDEKHQKDFVNWLLNTK (bridge 15-19) [Triple agonist of SEQ ID NO: 59],40.3%
16,{Acetyl(2-(4-imidazolyl))}-[Aib]QGTFTSDYSIAMDEKHCKDFVNWLLNTK (bridge 15-19) [Triple agonist of SEQ ID NO: 60],106%
